± gives the uncertainty stated by the source.
Experiment: amyloid nucleation score (Sup35N fusion, yeast selection) (log enrichment); library NNK3; higher = more nucleation; inactive = no reads after selection
Summary of the method: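 Plasmid inserts were Illumina-sequenced at input and output from psi-negative yeast expressing Sup35N fused to peptides of 20 random codons. The yeast were induced with 100 μM copper sulfate for 24 hours and grown 7 days at 30°C on medium lacking adenine and uracil, and sequences with under 100 input reads were excluded. Nucleation score is the DiMSum log enrichment of output over input reads, centred on the mode score of non-aggregating sequences.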

Row | Substance | amyloid nucleation score
1 | VSYSNDKGIWIYGTSLYPGA | inactive
2 | DPYFVG | inactive
3 | RIPLWCFS | inactive
4 | GSNQMPDPPHWPRDYNAEKR | inactive
5 | FLVLFTL | inactive
6 | VITTVTTWGLRAGDVMRRTR | 1.11 ± 0.17
7 | PERWSMPYIPSDLYKCLLNQ | inactive
8 | LSYSRTGASC | inactive
9 | RRVTRSSKAYRVGVSWDGIG | 0.047 ± 0.33
10 | RCLMDMFHILPKKSGVFSIT | inactive
11 | LSFSRDRLLHSSWGTKLMIM | inactive
12 | EVYEMNSIRMRSSELSME | inactive
13 | SWIKEFIQFIFIEGFRC | inactive
14 | MCRVV | -0.294 ± 0.93
15 | FNGEGFSRQG | -0.457 ± 1.8
16 | YMYQLKYYASEMNWVYSYSI | inactive
17 | HRRLGRTFFCATLGLHLCDF | inactive
18 | PGYGS | inactive
19 | ASRKVTRVVMHINLRLWYET | inactive
20 | TMRNKMAY | inactive
21 | GVSISQPTILQWSTVRTSID | 0.04 ± 0.85
22 | NLASCFVSIVEGSHFVYC | 1.9 ± 0.1
23 | LKNHNLVTKHYYARLMIGLW | inactive

Row | Substance | amyloid nucleation score
24 | GWLGSVGAKPADRVGKTGGI | 0.504 ± 0.24
25 | KSLSIRFYWVSPWTVVWDSR | 0.872 ± 0.11
26 | LHVPGLIYF | inactive
27 | KNFQPKTS | 0.082 ± 0.45
28 | GLPLVACLMSEQYCL | inactive
29 | ESLAWS | inactive
30 | NGSIILICLVYVGLRCLWFL | inactive
31 | LAYQGSGLIQQLAGLKHTTV | inactive
32 | YSVFAVFILRHGSRILY | inactive
33 | GRLSTAICFCGTMPSRWGFS | inactive
34 | RNSVIWNRLYRMRWV | inactive
35 | PVLSIYWTGPLKFNYIMMGL | inactive
36 | RYVTCNLEINTWDRVRGWHV | 1.16 ± 0.16
37 | LYFSFIFNLSIQGDAEFVSN | 2.49 ± 0.051
38 | SIICCAFLVVQFKER | 2.62 ± 0.084
39 | ANSWIILHSNHFLQFVGIAS | inactive
40 | GGYQAQTWL | inactive
41 | GGRDNTEIDVMTWRRRPGKS | inactive
42 | WRFFDVDNNMSTHVLKQLRC | inactive
43 | VPGSSNVTCLYEGLSSYNTR | inactive
44 | RSYFYTCDSLDALHVHLASH | inactive
45 | LVKLKL | inactive
46 | YSSLW | inactive

Row | Substance | amyloid nucleation score
47 | DDCQFSDNRRFKSVPSYSQR | inactive
48 | SEVVIWFAWYMSLLNPGLYA | inactive
49 | GDSCCDRLYLFFGVWCVRAV | inactive
50 | FVMTIM | inactive
51 | GSLYFSCINPM | inactive
52 | DGLSLPPMMVNRVQTATQSR | inactive
53 | NLINTVKYLNFDGLTAFSSQ | inactive
54 | YWGIVVILSGDLRGYDH | inactive
55 | CNYNTTM | inactive
56 | VRVMNGTRTSCLVR | -0.834 ± 1
57 | FSFITLMVTLSSVKIGEIWW | inactive
58 | NLGLLKAVYCVG | inactive
59 | MSTMFVPLSCFSENKRQTLS | inactive
60 | FCLRLTYVRS | 0.757 ± 0.22
61 | RSSFKG | inactive
62 | ALCCVRPFGNEDKREVMYSN | 0.604 ± 0.24
63 | LLRGLAIGKKDYIYSLLLLH | -0.619 ± 1.4
64 | FLGCNRV | inactive
65 | IFLFSSRCALDNIVEPWFFW | inactive
66 | AGVIAWVYSSG | inactive
67 | SINCTYPVRND | inactive
68 | TEGLKIFDDET | inactive
69 | ISGLSNMAYFLVNAWKLM | inactive

Row | Substance | amyloid nucleation score
70 | NELCVTFLGCRPYVPA | -0.469 ± 1.1
71 | ECCDFSGCRCTSS | -0.498 ± 0.91
72 | SKVRMVGVSKKCGLTVISVQ | inactive
73 | FGGLWLICSVVYTLNCRSMV | 1.79 ± 0.081
74 | RQVVRSTLRLSWSIFLYSYM | inactive
75 | QSRPKMMFLDSGCFWGFCVR | inactive
76 | VCMFEFMDKFWNFVVTAEQC | inactive
77 | ATELYLGVICNKMRW | inactive
78 | IYNSAFIGFSRLKVCVYALF | 0.471 ± 0.17
79 | KFIVVGYLGTIPTHPVGVPY | 0.6 ± 0.25
80 | FLYYATGHRIFLV | inactive
81 | GYYFWQWLRIIL | inactive
82 | FIRKSPWQRFDTHFGIIDFK | 0.778 ± 0.17
83 | HSVIRRFNIPMELYHMWLIS | inactive
84 | VDVDPVSSD | inactive
85 | FRACIVLYNTVHVVHFNISR | 0.565 ± 0.46
86 | REVRTGLNLIPRRIVSNHTF | inactive
87 | YAFISDYQYGILFYIKWYFG | inactive
88 | PIWTHFRGPCGVEAIRETRV | inactive
89 | LRRSVSIGDPGASLIKTSFA | inactive
90 | SCYISNFLSGCKLFMNRFL | inactive
91 | FIDQVDIVVCWSTWAI | inactive
92 | FDYWCKVMSHEYYVEEPNIY | inactive

Row | Substance | amyloid nucleation score
93 | TKRKCYPRLVRPGRLKGPSG | inactive
94 | QLKHWTEIKQVLVVSREWVH | -0.395 ± 1.3
95 | QPYIVFISGFVSSLWESVRK | inactive
96 | FVCKMVMIRRGDTWKVSKVV | inactive
97 | YLMIIDRPKSHNLPYLGMLH | inactive
98 | FLETV | inactive
99 | FFYNDVETVCNVICPKVYSD | inactive
100 | WYALYSIWVKHTHLCERTVE | inactive
101 | IRSVVIRVSFYFTWF | inactive
102 | QGGGVCPCPKMVSFQMMYVI | inactive
103 | IRRLQINRAKHAILLLHYNW | inactive
104 | GTISIGSIRAVLLAFPFYAL | 1.08 ± 0.13
105 | SFYVLIVQRCELMSVVVMES | inactive
106 | LFAIDNWVVKDSLVVWCEGR | inactive
107 | DFFLRVMYMKWNAPL | inactive
108 | MKVWFSLPRILGGVKGTANK | inactive
109 | SERKMVSKRTLKGYFRRQVI | inactive
110 | IVCRGYSSKWYSVSEYKDNV | 0.016 ± 0.37
111 | CTYIVHATVEPVYDNDLLKW | inactive
112 | VRLVAMCWGHLDKNRALRRG | inactive
113 | CEGVAHSDMFLRLLLTETGL | -0.792 ± 1.8
114 | RSHQKEMCVNFNLPVNFSHR | inactive
115 | CMMPLNATRYVYLPNAAHSL | inactive

Row | Substance | amyloid nucleation score
116 | IWKAWDNSSMGCPS | -0.032 ± 0.33
117 | SKSIMTWWEVLDGGSNLKSV | inactive
118 | YDGVNKLRSVCCVESSDFGL | inactive
119 | VTKPFTIKGTI | inactive
120 | TDDAGMYDNRFQSMSDENTF | inactive
121 | RSTCCWIR | inactive
122 | RRNYRSFKDLLFHDYTFMDS | inactive
123 | YICLYHLLVWWDRQFRGFNS | inactive
124 | MGEPGVDAFNRLTPKWCLIP | inactive
125 | CYGLSRCTRAEAMCPKG | inactive
126 | AVHFGLYFLMRVITMC | inactive
127 | GILNFAL | inactive
128 | SPPTGYRASNWRGLGSVDGW | inactive
129 | NQCPIRYLWL | 1.43 ± 0.11
130 | AESEVDKCLDRGYGAEKTCT | inactive
131 | FISHRARWISDESYIICHFV | -0.067 ± 1.1
132 | VAADITSEA | inactive
133 | CLLEHFK | inactive
134 | RARALLAHLKVPSKPVFTAV | inactive
135 | CTTRMCNGLWNARLRGTTSP | inactive
136 | RSGWCHLPQVRNMWTVIIDG | -0.648 ± 1.1
137 | WVQVRRVKIE | inactive
138 | MAHDEYWTGCVTGYKELEVM | inactive

Row | Substance | amyloid nucleation score
139 | IRSLLLILVRSAVPSALSVN | inactive
140 | LHLYNVDVNLIGPQVY | inactive
141 | RGITMCMSVL | inactive
142 | IGYGGSIPRHSTCDVSLQRW | inactive
143 | IEDQHLHVVLTGWGSKLSGH | inactive
144 | TVSGLMVFVMHNGYS | 1.45 ± 0.084
145 | WIDGINWLSSLVTAIKHSVK | inactive
146 | SYRFYDDQSLCG | inactive
147 | HLPRKLVRPRRF | -0.415 ± 1.2
148 | WLWVGIGLRSYELLNEEW | inactive
149 | RLATYALSFPSS | inactive
150 | RRMLNAVEMSYRVGKFSFCW | inactive
151 | TDFDNFSDTF | inactive
152 | VTLVNKKGWSFATAITMWKR | inactive
153 | CWAYF | inactive
154 | YELGIHWTYCWL | 2.39 ± 0.064
155 | NILKKLNVRNHFLVLMKKHM | inactive
156 | NAGYCVRTRSLGESLSIVRK | inactive
157 | STIDKCLYINIAIYAIFPDF | 1.31 ± 0.12
158 | FVPNVRLTDLWRANKGIVSH | 0.404 ± 0.38
159 | TFLVTRVPYSFF | inactive
